Test results taken from patent US20210355194A1 (TWIST BIOSCIENCE, published 2021).

B1: variant 6-76 (Fc fusion)
VHH: EVQLVESGGGLVQPGGSLRLSCAASGLAFDFDGMGWFRQAPGKEREGVAAINSGGSTYYADSVKGRFTISADNSKNTAYLQMNSLKPEDTAVYYCARFFRAHDYWGQGTLVTVSS
notes: VHH-Fc
B2: variant 6-78 (Fc fusion)
VHH: EVQLVESGGGLVQPGGSLRLSCAASGRTYDAMGWFRQAPGKEREFVASVTSGGYTHYADSVKGRFTISADNSKNTAYLQMNSLKPEDTAVYYCAKFGRKIVGATELDYWGQGTLVTVSS
notes: VHH-Fc
B3: variant 6-26 (Fc fusion)
VHH: EVQLVESGGGLVQPGGSLRLSCAASGDTFSTSWMGWFRQAPGKEREFVATINTGGGTNYADSVKGRFTISADNSKNTAYLQMNSLKPEDTAVYYCARVTTSFDYWGQGTLVTVSS
notes: VHH-Fc
B4: variant 6-55 (Fc fusion)
VHH: EVQLVESGGGLVQPGGSLRLSCAASGFTMSSSWMGWFRQAPGKEREFVARITSGGSTGYADSVKGRFTISADNSKNTAYLQMNSLKPEDTAVYYCASVDGYFDYWGQGTLVTVSS
notes: VHH-Fc
B5: variant 6-60 (Fc fusion)
VHH: EVQLVESGGGLVQPGGSLRLSCAASGDTYGSYWMGWFRQAPGKEREFVATISQSGAATAYADSVKGRFTISADNSKNTAYLQMNSLKPEDTAVYYCAGLLRYSGTYYDAFDVWGQGTLVTVSS
notes: VHH-Fc
B6: variant 6-73 (Fc fusion)
VHH: EVQLVESGGGLVQPGGSLRLSCAASGHTFSGYAMGWFRQAPGKEREFVAVITREGSTYYADSVKGRFTISADNSKNTAYLQMNSLKPEDTAVYYCARLGGEGFDYWGQGTLVTVSS
notes: VHH-Fc
B7: variant 6-20 (Fc fusion)
VHH: EVQLVESGGGLVQPGGSLRLSCAASGSTLPYHAMGWFRQAPGKEREFVAAITWNGASTSYADSVKGRFTISADNSKNTAYLQMNSLKPEDTAVYYCARDRYYDTSASYFESETWGQGTLVTVSS
notes: VHH-Fc
B8: variant 5-29 (Fc fusion)
VHH: EVQLVESGGGLVQPGGSLRLSCAASGFTFDDYPMGWFRQAPGKEREGVASVLRGGYTWYADSVKGRFTISADNSKNTAYLQMNSLKPEDTAVYYCAKDWATGLAWGQGTLVTVSS
B9: variant 5-60 (Fc fusion)
VHH: EVQLVESGGGLVQPGGSLRLSCAASGRSFSSHRMGWFRQAPGKEREFVAAIMWSGSHRNYADSVKGRFTISADNSKNTAYLQMNSLKPEDTAVYYCAAIAYEEGVYRWDWGQGTLVTVSS
B10: variant 5-15 (Fc fusion)
VHH: EVQLVESGGGLVQPGGSLRLSCAASGFTFDGAAMGWFRQAPGKEREFVATIRWTNSTDYADSVKGRFTISADNSKNTAYLQMNSLKPEDTAVYYCARGRYGIVERWGQGTLVTVSS
B11: variant 5-49 (Fc fusion)
VHH: EVQLVESGGGLVQPGGSLRLSCAASGRTSTVNGMGWFRQAPGKEREFVASISQSGAATAYADSVKGRFTISADNSKNTAYLQMNSLKPEDTAVYYCAADRTYSYSSTGYYWGQGTLVTVSS
B12: variant 5-55 (Fc fusion)
VHH: EVQLVESGGGLVQPGGSLRLSCAASGIDVNRNAMGWFRQAPGKEREFVAAITWSGGWRYYADSVKGRFTISADNSKNTAYLQMNSLKPEDTAVYYCATTFGDAGIPDQYDFGWGQGTLVTVSS
B13: 4-49 (VHH)
VHH: EVQLVESGGGLVQPGGSLRLSCAASGRTFGDYIMGWFRQAPGKERESVAAINWSAGYTAYADSVKGRFTISADNSKNTAYLQMNSLKPEDTAVYYCARASPNTGWHFDHWGQGTLVTVSS
B14: 4-121 (VHH)
VHH: EVQLVESGGGLVQPGGSLRLSCAASGTAASFNPMGWFRQAPGKEREFVAAITSGGSTNYADSVKGRFTISADNSKNTAYLQMNSLKPEDTAVYYCAAIAYEEGVYRWDWGQGTLVTVSS
B15: 4-52 (VHH)
VHH: EVQLVESGGGLVQPGGSLRLSCAASGRSFSNSVMGWFRQAPGKEREFVARITWNGGSTYYADSVKGRFTISADNSKNTAYLQMNSLKPEDTAVYYCATTENPNPRWGQGTLVTVSS
B16: variant 6-76 (Fc fusion)
VHH: B1 VHH
B17: variant 6-78 (Fc fusion)
VHH: B2 VHH
B18: variant 6-26 (Fc fusion)
VHH: B3 VHH
B19: variant 6-55 (Fc fusion)
VHH: B4 VHH
B20: variant 6-60 (Fc fusion)
VHH: B5 VHH
B21: variant 6-73 (Fc fusion)
VHH: B6 VHH
B22: variant 6-20 (Fc fusion)
VHH: B7 VHH

target: T1, Acro SARS-CoV-2 (COVID-19) S1 protein (SARS-CoV-2, UniProt P0DTC2 16-685); experiment: SPR
T1 construct: also called SARS-CoV-2 S1

Row | Binder | Kd
1 | B1 | 33.5 nM
2 | B2 | 18.9 nM
3 | B3 | 38.7 nM
4 | B4 | 25.2 nM
5 | B5 | 20.1 nM
6 | B6 | 103 nM
7 | B7 | 20.9 nM

target: T2, SARS-COV2-S1 RBD (mouse IgG2Fc tag) (SARS-CoV-2, UniProt P0DTC2 319-537); experiment: not given

Row | Binder | IC50
8 | B8 | 2.19 nM
9 | B9 | 2.15 nM
10 | B10 | 2.19 nM
11 | B11 | 5.61 nM
12 | B12 | 1.45 nM

target: SARS-COV2-S1 RBD (mouse IgG2Fc tag) (SARS-CoV-2, UniProt P0DTC2 319-537); experiment: FACS, S1 RBD-mFc on Vero E6 (ACE2)

Row | Binder | Competition Factor
13 | B1 | 9.96
14 | B2 | 9.27
15 | B3 | 6.41
16 | B4 | 7.98
17 | B5 | 12.6
18 | B6 | 7.99
19 | B7 | 9.95

target: human ACE2 (human, UniProt Q9BYF1 18-740); experiment: not given
Sequence (Q9BYF1 18-740 limits assumed): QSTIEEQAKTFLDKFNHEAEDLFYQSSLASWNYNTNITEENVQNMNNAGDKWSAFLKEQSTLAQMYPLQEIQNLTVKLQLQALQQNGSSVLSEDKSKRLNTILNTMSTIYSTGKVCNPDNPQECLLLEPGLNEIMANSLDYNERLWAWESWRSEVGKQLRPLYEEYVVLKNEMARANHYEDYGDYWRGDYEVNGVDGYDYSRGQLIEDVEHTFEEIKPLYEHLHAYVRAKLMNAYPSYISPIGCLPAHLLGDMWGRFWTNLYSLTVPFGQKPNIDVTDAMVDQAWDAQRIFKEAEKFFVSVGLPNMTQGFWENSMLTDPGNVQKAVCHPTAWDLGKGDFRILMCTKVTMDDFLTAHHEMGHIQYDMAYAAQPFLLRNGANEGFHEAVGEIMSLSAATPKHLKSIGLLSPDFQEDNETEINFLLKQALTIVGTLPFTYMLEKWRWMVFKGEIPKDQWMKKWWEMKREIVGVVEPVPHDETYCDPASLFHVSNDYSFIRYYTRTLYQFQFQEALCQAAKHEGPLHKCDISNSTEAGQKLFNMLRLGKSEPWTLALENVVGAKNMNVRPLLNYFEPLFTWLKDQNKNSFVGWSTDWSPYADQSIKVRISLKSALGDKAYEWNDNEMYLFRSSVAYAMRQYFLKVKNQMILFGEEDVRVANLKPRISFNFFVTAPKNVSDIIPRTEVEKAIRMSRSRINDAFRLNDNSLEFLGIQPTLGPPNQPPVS

Row | Binder | IC50
20 | B13 | 58 nM
21 | B14 | 0.91 nM
22 | B15 | 0.35 nM

target: T2, SARS-COV2-S1 RBD (mouse IgG2Fc tag); experiment: column not explained; likely FACS, S1 RBD on Vero E6

Row | Binder | MFI Fold Decrease
23 | B16 | 9.96 fold
24 | B17 | 9.27 fold
25 | B18 | 6.41 fold
26 | B19 | 7.98 fold
27 | B20 | 12.6 fold
28 | B21 | 7.99 fold
29 | B22 | 9.95 fold

target: T2, SARS-COV2-S1 RBD (mouse IgG2Fc tag); experiment: FACS, blocks S1 RBD-mFc binding to ACE2 on Vero E6

Row | Binder | IC50
30 | B16 | 1.11 nM
31 | B17 | 0.743 nM
32 | B18 | 1.07 nM
33 | B19 | 0.97 nM
34 | B20 | 1.31 nM
35 | B21 | 1.01 nM
36 | B22 | 0.76 nM

target: T3, Acro SARS-CoV-2 (COVID-19) S1 protein (SARS-CoV-2, UniProt P0DTC2 16-685); experiment: SPR
T3 construct: also called SARS-CoV-2 S1

Row | Binder | Kd
37 | B16 | 33.5 nM
38 | B17 | 18.9 nM
39 | B9 | 29.4 nM
40 | B18 | 38.7 nM
41 | B19 | 25.2 nM
42 | B20 | 20.1 nM
43 | B21 | 103 nM
44 | B22 | 20.9 nM
